Tests used:
HER2ECDHis [1] = biological target: T1, HER2ECDHis (human, UniProt P04626 23-653, biotinylated in the cross-block ELISA (sites not given)); assay: ELISA; competitor 153
T1 construct: range 1-653; expressed in HEK-293F; also called soluble HER2; biotinylated HER2ECDHis

HER2ECDHis [2] = biological target: T1, HER2ECDHis; assay: ELISA; competitor 084
Method: (§1) Next, the ELISA wells were washed with PBST (PBS supplemented with 0.05% Tween-20 [Sigma-Aldrich, Zwijndrecht, The Netherlands]) and blocked for one hour at room temperature (RT) with PBSTC (PBST supplemented 2% [v/v] chicken serum [Gibco, Paisley, Scotland]). The ELISA wells were then washed with PBST and incubated for one hour at RT with HER2ECDHis serially diluted in PBSTC (0.25-2 μg/mL in 2-fold dilutions). […] The plate was thereafter washed with PBST and incubated for one hour with 0.1 μg/mL Streptavidin-poly-HRP (Sanquin, Amsterdam, The Netherlands) diluted in PBST. After washing, the reaction was visualized through a 15 minutes incubation with 2,2′-azino-bis (3-ethylbenzothiazoline-6-sulfonic acid) (ABTS: one ABTS tablet diluted in 50 mL ABTS buffer (Roche Diagnostics, Almere, The Netherlands)) at RT protected from light. The colorization was stopped by adding an equal volume of oxalic acid (Sigma-Aldrich, Zwijndrecht, The Netherlands). Fluorescence at 405 nm was measured on a microtiter plate reader (Biotek Instruments, Winooski, USA).
(§2) Each HER2 antibody was coated to the ELISA wells at the sub-optimal dose that was determined as described above. After blocking of the ELISA wells, the wells were incubated with the predetermined concentration of 1 μg/mL biotinylated HER2ECDHis in the presence or absence of an excess of a second (competitor) HER2 antibody. The ELISA was then performed as described above. […] Percentage competition was then determined as 100 minus the percentage of inhibition.

[3] = biological target: T2, human epidermal growth factor receptor 2 (HER2), membrane-bound on cells (human, UniProt P04626 23-1255); assay: cell-based or functional assay
HER2ECDHis [4] = biological target: T1, HER2ECDHis; assay: ELISA; competitor pert
Method: as §1, §2

HER2ECDHis [5] = biological target: T1, HER2ECDHis; assay: ELISA; competitor 129
Method: as §1, §2

[6] = biological target: T2, human epidermal growth factor receptor …; assay: cell-based or functional assay; remark: listed apart in the source
HER2ECDHis [7] = biological target: T1, HER2ECDHis; assay: ELISA; competitor 091
Method: as §1, §2

HER2ECDHis [8] = biological target: T1, HER2ECDHis; assay: ELISA; competitor 050
Method: as §1, §2

HER2ECDHis [9] = biological target: T1, HER2ECDHis; assay: ELISA; competitor 098
Method: as §1, §2

HER2ECDHis [10] = biological target: T1, HER2ECDHis; assay: ELISA; competitor 025
Method: as §1, §2

HER2ECDHis [11] = biological target: T1, HER2ECDHis; assay: ELISA; competitor tras
Method: as §1, §2

[12] = biological target: T2, human epidermal growth factor receptor …; assay: cell-based or functional assay; remark: listed apart in the source
HER2ECDHis [13] = biological target: T1, HER2ECDHis; assay: ELISA; competitor 169
Method: as §1, §2

HER2ECDHis [14] = biological target: T1, HER2ECDHis; assay: ELISA; competitor 127
Method: as §1, §2

HER2ECDHis [15] = biological target: T1, HER2ECDHis; assay: ELISA; competitor 159
Method: as §1, §2

HER2ECDHis [16] = biological target: T1, HER2ECDHis; assay: ELISA; competitor F5
Method: as §1, §2

HER2ECDHis [17] = biological target: T1, HER2ECDHis; assay: ELISA; competitor C1
Method: as §1, §2

HER2ECDHis [18] = biological target: T1, HER2ECDHis; assay: ELISA; competitor 132
Method: as §1, §2

Binder	% binding vs no competitor (HER2ECDHis [1])	% binding vs no competitor (HER2ECDHis [2])	% cells killed, A431, anti-kappa-ETA'-conjugated [3]	% binding vs no competitor (HER2ECDHis [4])	% binding vs no competitor (HER2ECDHis [5])	EC50, fab-CypHer5E internalization, AU565 [6]	Maximal MFI, fab-CypHer5E internalization, AU565 [6]	% binding vs no competitor (HER2ECDHis [7])	% binding vs no competitor (HER2ECDHis [8])	% binding vs no competitor (HER2ECDHis [9])	% binding vs no competitor (HER2ECDHis [10])	% binding vs no competitor (HER2ECDHis [11])	% cells killed, AU565, anti-kappa-ETA'-conjugated [12]	EC50 of cell kill, AU565, anti-kappa-ETA'-conjugated [12]	% binding vs no competitor (HER2ECDHis [13])	EC50 of cell kill, A431, anti-kappa-ETA'-conjugated [3]	also measured
HuMab 084 (antibody, V domains shown, also called TH1014-084; PC1014-084) VH: QVQLVQSGAEVKKPGSSVKVSCKASGGTFRTYAINWVRQAPGQGLEWMGRINTVLGIVNHAQKFQGRVTITADKSTNTAYMELNSLRSEDTAVYYCAREKGVDYYYGIEVWGQGTTVTVSS VL: DIQMTQSPSSVSASVGDRVTITCRASQGISSWLAWYQHKPGKAPKLLIYVASTLQSGVPSRFSGSGSGTDFTLTISSLQPEDFATYYCQQANSFPLTFGGGTKVEIK	98%	20%	50.5%	101%	104%	30.5 ng/mL	71100 MFI	104%	76%	109%	106%	74%	58.1%	27 ng/mL	73%		
HuMab 050 (antibody, V domains shown, also called TH1014-050; PC1014-050) VH: EVQLLESGGGLVQPGGSLRLSCAASGFTFSSYAMNWVRQAPGKGLEWVSAISGRGGTTYYADSVKGRFTISRDNSKNTLYLQMSSLRAEDTAVYYCAKARANWDYFDYWGQGTLVTVSS VL: DIQMTQSPSSVSASVGDRVTITCRASQGISSWLAWYQHKPGKAPKLLIYAASILQSGVPSRFSGSGSGTDFTLTISSLQPEDFATYYCQQANSFPITFGQGTRLEIK	104%	74%		95%	110%			98%	12%	102%	104%	13%	52.4%	12.7 ng/mL	30%		
HuMab 127 (antibody, V domains shown) VH: EVQLVQSGAEVKKPGESLTISCKGSGYSFSIYWIGWVRQMPGKGLEWMGIIFPGDSDIRYSPSFQGQVTISADKSISTAYLQWSSLKASDTAMYYCARQPGDWSPRHWYFDLWGRGTLVTVSS VL: VIWMTQSPSLLSASTGDRVTISCRMSQGISSYLAWYQQKPGKAPELLIYAASTLQSGVPSRFSGSGSGTDFTLTISYLQSEDFATYYCQQYYSFPLTFGGGTKVEIK	21%					~9.68 ng/mL	138000 MFI			58%		102%	69%	34.5 ng/mL			% binding vs no competitor (HER2ECDHis [14]): 11%; % binding vs no competitor (HER2ECDHis [15]): 8%; % binding vs no competitor (HER2ECDHis [16]): 88%; % binding vs no competitor (HER2ECDHis [17]): 112%; % binding vs no competitor (HER2ECDHis [18]): 44%
HuMab 159 (antibody, V domains shown, also called TH1014-159; PC1014-159) VH: EVQLVQSGAEVKKPGESLKISCKGSGYNFTSYWIGWVRQMPGKGLEWMGIIYPGDSDTRYSPSFQGQVTISADKSISTAYLQWSSLKASDTAMYYCARWGTYYDILTGYFNWFDPWGQGTLVTVSS VL: DIQMTQSPSSLSASVGDRVTITCRASQGISSWLAWYQQKPEKAPKSLIYAASSLQSGVPSRFSGSGSGTDFTLTISSLQPEDFATYYCQQYYIYPWTFGQGTKVEIK	40%			112%			92400 MFI			11%		111%	70.3%	34.9 ng/mL			% binding vs no competitor (HER2ECDHis [14]): 15%; % binding vs no competitor (HER2ECDHis [15]): 6%; % binding vs no competitor (HER2ECDHis [16]): 86%; % binding vs no competitor (HER2ECDHis [17]): 96%; % binding vs no competitor (HER2ECDHis [18]): 79%
HuMab 025 (antibody, V domains shown, also called TH1014-025; PC1014-025) VH: QVQLQQWGAGLLKPSETLSLTCAVYGGSFSDYYWNWIRQPPGKGLEWIGEIHHSGSTNYNPSLKSRVTISVDTSKNQFSLKLSSVTAADTAVYYCARGYYDSGVYYFDYWAQGTLVTVSS VL: DIQMTQSPSSLSASVGDRVTITCRASQGISRWLAWYQQKPEKAPKSLIYAASSLRSGVPSRFSGSGSGTDFTLTISSLQPEDFATYYCQQYNSYPITFGQGTRLEIK	99%	104%	86.7%	8%	15%	30.1 ng/mL	63400 MFI	21%	100%	102%	18%	98%	60%	16.7 ng/mL	98%	~9.77 ng/mL	
HuMab 091 (antibody, V domains shown, also called TH1014-091; PC1014-091) VH: QVQLQQWGAGLLKPSETLSLTCAVSGGSFSGYYWTWIRQPPGKGLEWIGEIYHSGDTNYNPSLKSRVTISVDTSKNQFSLKLYSVTAADTAVYYCARLYFGSGIYYLDYWGQGTLVTVSS VL: DIQMTQSPSSLSASVGDRVTITCRASQGISSWLVWYQQKPEKAPKSLIYAASSLQSGVPSRFSGSGSGTDFTLTISSLQPEDFATYYCQQYNSFPPTFGQGTKVEIK	98%	100%	83.3%	5%	78%	33 ng/mL	50700 MFI	15%	95%	98%	13%	99%	50.6%	46.5 ng/mL	99%	~9.86 ng/mL	
HuMab 129 (antibody, V domains shown) VH: QVQLVESGGGVVQPGRSLRLSCAASGFTFSTFAIHWVRQAPGKGLEWVAVISYDGGHKFYADSVKGRFTISRDNSKNTLYLQMNSLRAEDTAMYYCARGLGVWGAFDYWGQGTLVTVSS VL: EIVLTQSPATLSLSPGERATLSCRASQSVSSYLAWYQQKPGQAPRLLIYDASNRATGIPARFSGSGSGTDFTLTISSLEPEDFAVYYCQQRSNWWTFGQGTKVEIK	98%	92%	75.9%	22%	12%	7.15 ng/mL	60300 MFI	76%	97%	106%	55%	93%	60.8%	30.9 ng/mL	99%	~10.6 ng/mL	
HuMab 169 (antibody, V domains shown, also called TH1014-169; PC1014-169) VH: QVQLVQSGAEVKKPGASVKVSCKASGYTFTNYGISWVRQAPGQGLEWMGWLSAYSGNTIYAQKLQGRVTMTTDTSTTTAYMELRSLRSDDTAVYYCARDRIVVRPDYFDYWGQGTLVTVSS VL: EIVLTQSPATLSLSPGERATLSCRASQSVSSYLAWYQQKPGQAPRLLIYDASNRATGIPARFSGSGSGTDFTLTISSLEPEDFAVYYCQQRSNWPRTFGQGTKVEIK	102%	73%	34%	101%	106%		38800 MFI	105%	21%	105%	98%	19%	49.9%	35.6 ng/mL	45%		
